Measured values from US20180312587A1 (ADURO BIOTECH HOLDINGS EUROPE B V, published 2018).

How the values were obtained:
human SIRPα variant 1 [1] = biological target: T1, human SIRPα variant 1 (human, UniProt P78324 31-504); assay: flow cytometry, blockade of DyLight488-hCD47/Fc binding to U-937 cells
T1 construct: full length ORF on transfected CHO-K1 or HEK293 cells; entry includes the signal peptide; also called hSIRPαV1; SIRPαV1
Description: For this purpose, THP-1 (ATCC TIB-202) and U-937 (ATCC CRL-1593.2) monocyte cell lines were used as the source of hSIRPα in the assay. THP-1 and U-937 cells were seeded in 96-well round bottomed tissue culture plates and incubated for 45 minutes with FcR Blocking Reagent (Miltenyi Biotec) and hSIRPα.50A antibody (200 μg/mL and dilutions thereof) in PBS/1% BSA at 4° C. […] After this labeling procedure, cells were washed two times, resuspended in PBS/1% BSA containing 0.1 μg/mL DAPI (BioLegend), and analysed by flow cytometry on the FACSCanto II (BD Biosciences). Data were processed and analysed with FlowJo V10 software (FlowJo, LLC).
As depicted in FIG. 4 and the following Table 11, binding of recombinant hCD47 fused to an Fc domain of human IgG1 was monitored in the presence of increasing amounts of the hSIRPα.50A antibody. Antibody hSIRPα.50A blocked the hSIRPα/hCD47 interaction, using the flow cytometry-based method described above. […] IC50 values represent the concentration at which half of the inhibition is observed.

human SIRPα variant 1 [2] = biological target: T1, human SIRPα variant 1; assay: CELISA, CHO-K1 transfectants, point mutant study
Description: To pinpoint the amino acids for interaction of hSIRPα.50A with the IgV domain, several point mutants of hSIRPαV1 were generated based on single amino acid differences between hSIRPαV1/V2 and hSIRPβ1. […] Amino acids in the hSIRPα IgV domain that are altered in hSIRPβ1 were mutated by using the QuikChange II Site-Directed Mutagenesis Kit (Stratagene) and the full length hSIRPαV1 sequence (SEQ ID NO: 33) as donor cDNA. Binding of hSIRPα.50A to hSIRPαV1 point mutants was tested using CELISA. To this end, CHO-K1 cells were transiently transfected, using Lipofectamine 2000, with cDNA encoding the full length open reading frame of hSIRPαV1 and mutants thereof, and hSIRPβ1 subcloned into the pCI-neo vector. Transfected cells were seeded in culture medium (DMEM-F12 (Gibco) supplemented with 5% New Born Calf Serum (BioWest) and Pen/Strep (Gibco)) in 96-well flat-bottom tissue culture plates and incubated at 37° C., 5% CO₂ and 95% humidity for 24 hours. Subsequently, culture medium was removed and cells were incubated for 1 hour at 37° C., 5% CO₂ and 95% humidity with purified hSIRPα antibodies (used at 10 μg/mL and dilutions thereof). Next, cells were washed with PBS-T and incubated for 1 hour at 37° C., 5% CO₂ and 95% humidity with goat-anti-mouse IgG-HRP (Southern Biotech). […] Reactions were stopped with 0.5 M H₂SO₄ and absorbances were read at 450 and 610 nm. […]

human SIRPγ = biological target: T2, human SIRPγ (human, UniProt Q9P1W8 29-387); assay: CELISA, CHO-K1 transfectants; extrapolated
T2 construct: on transfected CHO-K1 cells; also called hSIRPγ
T2 sequence (Q9P1W8 29-387 limits assumed): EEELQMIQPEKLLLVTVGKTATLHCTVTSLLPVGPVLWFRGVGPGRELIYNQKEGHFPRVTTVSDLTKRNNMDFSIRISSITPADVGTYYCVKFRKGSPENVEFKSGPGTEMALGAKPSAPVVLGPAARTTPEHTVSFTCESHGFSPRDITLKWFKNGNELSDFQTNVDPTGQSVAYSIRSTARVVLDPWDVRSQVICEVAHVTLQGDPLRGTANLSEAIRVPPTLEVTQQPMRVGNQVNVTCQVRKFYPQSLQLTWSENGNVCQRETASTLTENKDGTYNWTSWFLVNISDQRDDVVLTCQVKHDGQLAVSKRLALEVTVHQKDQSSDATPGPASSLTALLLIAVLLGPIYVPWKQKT
Description: Binding of the humanized antibodies to hSIRPα was studied in CELISA format. Binding of the hSIRPα antibodies to human SIRPαV1, SIRPαV2, hSIRPβ1, and hSIRPγ was confirmed using CHO-K1 cells that had been transiently transfected with cDNA encoding the full length open reading frame of each of these respective targets subcloned into the pCI-neo vector. CHO-K1.hSIRPαV1, CHO-K1.hSIRPαV2, CHO-K1.hSIRPβ1, and CHO-K1.hSIRPγ cells were seeded in culture medium (DMEM-F12 (Gibco) supplemented with 5% New Born Calf Serum (BioWest) and Pen/Strep (Gibco)) in 96-well flat-bottom tissue culture plates and incubated at 37° C., 5% CO₂ and 95% humidity until cell layers were confluent. Subsequently, culture medium was removed and cells were incubated for 1 hour at 37° C., 5% CO₂ and 95% humidity with purified hSIRPα antibodies (10 μg/mL and dilutions thereof). Next, cells were washed with PBS-T and incubated for 1 hour at 37° C., 5% CO₂ and 95% humidity with goat-anti-human IgG-HRP conjugate (Jackson Immuno Research) or goat-anti-mouse IgG-HRP (Southern Biotech). Subsequently, cells were washed three times with PBS-T and anti-hSIRPα immunoreactivity was visualized with TMB Stabilized Chromogen (Invitrogen). Reactions were stopped with 0.5 M H₂SO₄ and absorbances were read at 450 and 610 nm. […] In Table 13 the EC50 values of the humanized hSIRPα antibodies are depicted.
Table 13: Binding of humanized and parental hSIRPα.50A antibodies to CHO-K1.hSIRPαV1, CHO-K1.hSIRPαV2, CHO-K1.hSIRPβ1, and CHO-K1.hSIRPγ cells.

T1 sequence (P78324 31-504 limits assumed, change not shown): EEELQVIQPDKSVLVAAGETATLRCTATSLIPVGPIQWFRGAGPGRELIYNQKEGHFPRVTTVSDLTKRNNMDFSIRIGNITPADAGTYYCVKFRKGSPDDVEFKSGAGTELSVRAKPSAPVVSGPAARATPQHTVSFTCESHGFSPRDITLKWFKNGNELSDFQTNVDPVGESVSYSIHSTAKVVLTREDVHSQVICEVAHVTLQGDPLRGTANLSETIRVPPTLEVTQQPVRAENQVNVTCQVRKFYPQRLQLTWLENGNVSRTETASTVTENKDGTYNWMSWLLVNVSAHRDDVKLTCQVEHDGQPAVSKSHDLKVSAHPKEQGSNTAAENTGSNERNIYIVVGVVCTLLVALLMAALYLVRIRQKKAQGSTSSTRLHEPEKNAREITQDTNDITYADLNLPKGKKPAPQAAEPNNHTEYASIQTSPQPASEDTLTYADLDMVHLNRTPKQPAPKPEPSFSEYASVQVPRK

B1: hSIRPα.50A (antibody, V domains shown)
VH: QVQLQQSGPELVKPGASVRISCKASGFTFTNYYIHWVKQRPGQGLEWIGWIYPGNVNTKYNEKFKAKATLTADKSSTTAYMQLSSLASEDSAVYFCARPTIIATDFDVWGAGTTVTVSS
VL: DIVMTQSHKFMSTSVGDRVNITCKASQGVGTAVGWYQQKPGQSPRLLIYWASTRHTGVPDRFTGSGSGTDFSLAISNVQSEDLADYFCQQYSTYPFTFGGGTNLEIK
notes: light chain constant domain not tied; also called mouse hSIRPα.50A; hSIRPα.50A.mIgG1
Human SIRPα variant 1 [1]
  IC50: 7.16 nM
Human SIRPα variant 1 [2]
  EC50: 0.535 nM
Human SIRPγ
  EC50: 1.25 nM
